Assay results: patent US20070117770A1, “Human ribosomal DNA (rDNA) and ribosomal RNA (rRNA) nucleic acids and uses thereof” (Cylene Pharmaceuticals, Inc., priority 2005, published 2007)

B1: AGGGCGGCGGGCGGGGAAGAGGGCACAGACGGGCGAGGGCCGGGGACCGCGAGGGCAAGGGCACCCGGG (nucleic acid, listed as Homo sapiens)
chain: AGGGCGGCGGGCGGGGAAGAGGGCACAGACGGGCGAGGGCCGGGGACCGCGAGGGCAAGGGCACCCGGG
modifications: DNA, backbone and methylation of C not given here
B2: CGGAGGGCGCGCGGGTCGGGGCGGCGGCGGCGGCGGCGGTGGCGGCGGCGGCGGGGGCGGCGGG (nucleic acid, listed as Homo sapiens)
chain: CGGAGGGCGCGCGGGTCGGGGCGGCGGCGGCGGCGGCGGTGGCGGCGGCGGCGGGGGCGGCGGG
modifications: listed as DNA, chemistry not given here

What was measured:
[1] = target: T1, nucleolin (Homo sapiens, UniProt P19338); test: Filter-binding assay of 32P-labeled quadruplexes and Nucleolin; settings: for Kd: 0.2 nM 32P-labeled quadruplex, read-out: Kd, apparent dissociation constant of nucleolin protein and the nucleic acid ligand
T1 construct: without the N-terminal acidic stretches domain
Procedure: The assay also was conducted in a filter-binding format. […] The protein-quadruplex mixtures were incubated for 30 min at ambient temperature and filtered through mixed cellulose ester membrane filters (Millipore) with gentle suction. The filters were washed twice with […] of binding buffer, dried and OptiPhase ‘SuperMix’ scintillation cocktail (Perkin Elmer) was added to the wells. Radioactivity was assayed with MicroBeta scintillation counter (Perkin Elmer). Binding curves were constructed and apparent Kd's and Bmax's for the complexes were calculated using the GraphPad Prizm software program (GraphPad Software). In the following table, the nucleic acid ligand is designated in the first column using the nomenclature described herein; the second column provides the nucleotide sequence of the nucleic acid ligand; the third column is the conformation of the ligand as determined by circular dichroism (M is mixed, P is parallel, A is antiparallel, C is complex, SS is single-stranded and ND is not determined); the fourth column is the dissociation constant determined by the filter binding assay of nucleolin protein and the nucleic acid ligand; the fifth column is a Bmax constant determined by the filter binding assay, which is the percent of active nucleic acid ligand in each assay; and the sixth column presents the concentration of Compound A-1 required to dissociate half of the complexed nucleic acid ligand and nucleolin protein, as determined by the EMSA assay described above.

[2] = target: T1, nucleolin; test: EMSA, relative affinity of nucleic acid ligands for nucleolin; type: binding; parameters: key: +: weakest nucleolin affinity; ++++: strongest nucleolin affinity
Procedure: The following assays assessed effects of compounds on interactions between nucleolin and nucleic acid ligands capable of forming quadruplex (QP) and hairpin (HP) secondary structures. Nucleic acid ligands tested were a cMyc QP DNA having nucleotide sequence 5′-[…]-3′ (SEQ ID NO: 176) and a HP pre-rRNA region to which nucleolin binds, having the sequence 5′-[…]-3′ (SEQ ID NO: 177). In the assays, recombinant nucleolin (˜250 nM), which was fused to maltose binding protein and had the sequence under accession number NM_005381 without the N-terminal acidic stretches domain, was incubated with each of the two ^32P-labeled nucleic acid ligands (10 or 250 nM). Nucleolin and the nucleic acid ligand were incubated in the presence or absence of a test compound of Formula A-1, B-1, C-6 or C-7 in an incubation buffer (12.5 mM Tris, pH 7.6, 60 mM KCl, 1 mM MgCl2, 0.1 mM EDTA, 1 mM DTT, 5% glycerol, 0.1 mg/ml BSA) for 30 minutes at room temperature. Structures for A-1 and B-1 are shown above and structures for C-6 and C-7 are shown hereafter: [drawing 17] The resulting complexes were separated on a 6% DNA retardation gel using 0.5× TBE with 20 mM KCl as a running buffer (i.e., electrophoresis mobility shift assay (EMSA)).
The assay also was conducted using nucleic acid ligands derived from human ribosomal DNA. Sequences of these nucleic acids are shown in the preceding example. […]

T1 sequence (P19338 284-710 limits assumed): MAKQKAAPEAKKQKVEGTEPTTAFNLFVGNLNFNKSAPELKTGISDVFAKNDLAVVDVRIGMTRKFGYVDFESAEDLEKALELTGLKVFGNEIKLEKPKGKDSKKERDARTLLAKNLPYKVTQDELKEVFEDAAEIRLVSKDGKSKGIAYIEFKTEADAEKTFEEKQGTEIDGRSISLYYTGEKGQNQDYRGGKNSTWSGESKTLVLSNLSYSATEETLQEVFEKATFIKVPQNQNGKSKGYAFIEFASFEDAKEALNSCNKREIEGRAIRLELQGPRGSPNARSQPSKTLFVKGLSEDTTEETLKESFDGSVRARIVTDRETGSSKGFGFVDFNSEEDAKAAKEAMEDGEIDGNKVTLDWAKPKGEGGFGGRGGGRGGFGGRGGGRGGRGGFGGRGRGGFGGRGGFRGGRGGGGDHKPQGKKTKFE

Molecule	Bmax, percent of active nucleic acid ligand [1] [%]	Kd [1] [pM]	Affinity for Nucleolin (relative) [2]
B1	55	700	
B2	100	300	++++
